Where a chain is given by its changes, count along the chain named. In names and notes the source's numbering stands.
B1: wild-type FokI restriction endonuclease (enzyme, UniProt P14870 1-579, looked up)
chain: MVSKIRTFGWVQNPGKFENLKRVVQVFDRNSKVHNEVKNIKIPTLVKESKIQKELVAIMNQHDLIYTYKELVGTGTSIRSEAPCDAIIQATIADQGNKKGYIDNWSSDGFLRWAHALGFIEYINKSDSFVITDVGLAYSKSADGSAIEKEILIEAISSYPPAIRILTLLEDGQHLTKFDLGKNLGFSGESGFTSLPEGILLDTLANAMPKDKGEIRNNWEGSSDKYARMIGGWLDKLGLVKQGKKEFIIPTLGKPDNKEFISHAFKITGEGLKVLRRAKGSTKFTRVPKRVYWEMLATNLTDKEYVRTRRALILEILIKAGSLKIEQIQDNLKKLGFDEVIETIENDIKGLINTGIFIEIKGRFYQLKDHILQFVIPNRGVTKQLVKSELEEKKSELRHKLKYVPHEYIELIEIARNSTQDRILEMKVMEFFMKVYGYRGKHLGGSRKPDGAIYTVGSPIDYGVIVDTKAYSGGYNLPIGQADEMQRYVEENQTRNKHINPNEWWKVYPSSVTEFKFLFVSGHFKGNYKAQLTRLNHITNCNGAVLSVEELLIGGEMIKAGTLTLEEVRRKFNNGEINF
B2: N13Y variant of the FokI endonuclease (enzyme, UniProt P14870 1-579, looked up)
chain: B1 chain with N13Y

What was measured:
[1] = molecular target: the molecule itself; assay: single-turnover enzyme kinetics
[2] = molecular target: B1; assay: steady-state enzyme kinetics

Kd [2] [nM]	Binder	Kd [1] [nM]
–	B1	99 ± 19
166 ± 73	B2	–

Source: publication PMC1410913 (Nucleic Acids Research, 2006)
